Laboratory results as given in patent US20220403022A1.

Molecular target: human TIGIT on cells (primary T cells, transfected HEK293 cells, Jurkat reporter cells, NK cells) (human) (UniProt Q495A1)
Assay: cell-based or functional assay

Sequence of human TIGIT on cells (primary T cells, transfected HEK293 cells, Jurkat reporter cells, NK cells) (human) (Q495A1 22-244 limits assumed): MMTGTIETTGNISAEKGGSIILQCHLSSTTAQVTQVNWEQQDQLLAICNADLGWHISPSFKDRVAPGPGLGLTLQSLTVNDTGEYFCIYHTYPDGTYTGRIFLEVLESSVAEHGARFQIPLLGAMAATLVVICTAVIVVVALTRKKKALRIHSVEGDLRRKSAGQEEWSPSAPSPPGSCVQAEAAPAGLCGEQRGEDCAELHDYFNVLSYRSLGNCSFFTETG

Max RLU (potency): 575 RLU
Substance: Isotype control (antibody)
